We go through one substance from paper PMC5173320.

This experiment deals with GFP-FLN90 (short 90 kDa isoform of Drosophila filamin/cheerio with an N terminus EGFP tag) (Drosophila). As to the kind of experiment: proximity ligation; in situ PLA (Duolink) in HEK293T cells co-expressing V5-dPak with GFP-FLN90 or GFP alone; fixed with 4% paraformaldehyde about 40 hr after transfection; mouse anti-V5 and rabbit anti-GFP; GFP+ cells scored as PLA+ if they had more than three puncta.
Sequence of GFP-FLN90 (short 90 kDa isoform of Drosophila filamin/cheerio with an N terminus EGFP tag) (Drosophila) (Q9VEN1 whole entry, canonical isoform): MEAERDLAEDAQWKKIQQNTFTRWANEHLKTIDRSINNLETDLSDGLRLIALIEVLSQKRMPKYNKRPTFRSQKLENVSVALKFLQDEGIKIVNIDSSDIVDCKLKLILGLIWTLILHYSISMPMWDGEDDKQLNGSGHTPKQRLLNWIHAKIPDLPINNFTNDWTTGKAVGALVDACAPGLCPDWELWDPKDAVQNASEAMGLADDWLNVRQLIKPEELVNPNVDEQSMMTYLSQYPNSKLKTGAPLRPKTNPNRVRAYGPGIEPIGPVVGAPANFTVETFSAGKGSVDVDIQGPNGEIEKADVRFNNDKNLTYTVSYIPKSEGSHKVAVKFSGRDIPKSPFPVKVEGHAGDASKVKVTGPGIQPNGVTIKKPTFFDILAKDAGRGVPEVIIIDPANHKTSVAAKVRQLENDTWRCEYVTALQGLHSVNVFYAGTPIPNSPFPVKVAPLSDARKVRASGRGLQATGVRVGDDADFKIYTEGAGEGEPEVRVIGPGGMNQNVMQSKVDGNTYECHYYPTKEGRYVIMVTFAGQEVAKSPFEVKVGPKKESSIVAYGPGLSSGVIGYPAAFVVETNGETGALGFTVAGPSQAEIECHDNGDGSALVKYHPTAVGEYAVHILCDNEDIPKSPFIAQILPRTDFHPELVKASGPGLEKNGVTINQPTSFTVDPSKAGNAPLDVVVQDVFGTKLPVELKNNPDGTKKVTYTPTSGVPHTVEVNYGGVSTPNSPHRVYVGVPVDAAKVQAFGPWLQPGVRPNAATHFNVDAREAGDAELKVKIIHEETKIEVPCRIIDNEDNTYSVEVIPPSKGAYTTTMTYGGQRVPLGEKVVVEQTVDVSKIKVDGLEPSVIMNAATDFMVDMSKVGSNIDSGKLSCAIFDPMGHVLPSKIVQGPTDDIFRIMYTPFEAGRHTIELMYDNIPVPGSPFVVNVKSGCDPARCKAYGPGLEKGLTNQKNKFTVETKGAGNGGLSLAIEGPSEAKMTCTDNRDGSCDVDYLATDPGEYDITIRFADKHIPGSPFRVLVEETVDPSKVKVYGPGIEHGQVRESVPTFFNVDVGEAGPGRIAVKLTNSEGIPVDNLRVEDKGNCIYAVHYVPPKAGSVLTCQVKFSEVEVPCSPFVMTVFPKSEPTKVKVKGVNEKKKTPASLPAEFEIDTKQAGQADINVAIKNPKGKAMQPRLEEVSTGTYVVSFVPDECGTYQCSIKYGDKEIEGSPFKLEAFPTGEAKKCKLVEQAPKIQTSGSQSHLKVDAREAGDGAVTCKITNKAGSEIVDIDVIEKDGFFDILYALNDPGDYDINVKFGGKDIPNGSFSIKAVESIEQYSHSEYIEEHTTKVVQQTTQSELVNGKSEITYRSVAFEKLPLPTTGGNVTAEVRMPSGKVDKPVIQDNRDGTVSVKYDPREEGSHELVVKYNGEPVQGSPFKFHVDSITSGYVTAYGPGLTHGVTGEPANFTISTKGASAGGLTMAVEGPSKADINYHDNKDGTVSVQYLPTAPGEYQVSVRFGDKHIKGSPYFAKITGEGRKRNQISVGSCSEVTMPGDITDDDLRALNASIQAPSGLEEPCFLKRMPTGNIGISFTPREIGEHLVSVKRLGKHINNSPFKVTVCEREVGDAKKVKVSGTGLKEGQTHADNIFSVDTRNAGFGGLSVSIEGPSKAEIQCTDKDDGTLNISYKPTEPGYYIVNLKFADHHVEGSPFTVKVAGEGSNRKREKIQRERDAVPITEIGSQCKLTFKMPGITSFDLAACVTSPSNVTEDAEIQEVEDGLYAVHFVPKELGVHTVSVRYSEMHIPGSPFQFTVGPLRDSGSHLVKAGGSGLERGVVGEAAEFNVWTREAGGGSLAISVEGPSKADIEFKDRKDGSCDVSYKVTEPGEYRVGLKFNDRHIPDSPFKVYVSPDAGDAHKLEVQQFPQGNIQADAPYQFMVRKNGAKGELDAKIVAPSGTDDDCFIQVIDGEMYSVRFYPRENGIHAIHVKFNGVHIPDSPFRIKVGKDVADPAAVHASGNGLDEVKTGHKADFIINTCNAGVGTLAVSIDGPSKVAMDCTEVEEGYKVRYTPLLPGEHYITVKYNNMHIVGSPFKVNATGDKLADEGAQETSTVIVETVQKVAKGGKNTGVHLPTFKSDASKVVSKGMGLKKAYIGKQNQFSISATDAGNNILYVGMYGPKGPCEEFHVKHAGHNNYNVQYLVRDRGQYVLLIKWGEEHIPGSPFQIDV

Substance “V5-dPak (Drosophila p21-activated kinase Pak with a V5 tag) (from UniProt Q9VI13 1-704) (enzyme)” came in with a PLA-positive cells among GFP+ cells (of 973 GFP+ cells) of 484.
